The text below walks through data of patent publication US10688131B2, “Peptides and scaffolds for use in immunotherapy against head and neck squamous cell carcinoma and other cancers” (Immatics Biotechnologies GmbH, priority 2016, dated 2020).

For the test, the target named is HLA-A*02:01 (Homo sapiens, UniProt P04439, D140Y/D185E/D98H/E176V/E277Q/G131W/G231S/I119V/I121R/I166T/I218V/L300P/L318F/N151K/N90K/P208A/P217A/Q86G/Q94H/R138H/R169H/T345S). In words: MHC binding assay: UV-ligand exchange with β2m ELISA. The conditions noted are these: binding of HLA-class I restricted peptides to HLA-A*02:01. The source says:
Candidate peptides for T cell based therapies according to the present invention were further tested for their MHC binding capacity (affinity). The individual peptide-MHC complexes were produced by UV-ligand exchange, where a UV-sensitive peptide is cleaved upon UV-irradiation, and exchanged with the peptide of interest as analyzed. Only peptide candidates that can effectively bind and stabilize the peptide-receptive MHC molecules prevent dissociation of the MHC complexes. To determine the yield of the exchange reaction, an ELISA was performed based on the detection of the light chain (β2m) of stabilized MHC complexes. The assay was performed as generally described in Rodenko et al. (Rodenko et al., 2006).
96 well MAXISorp plates (NUNC) were coated over night with 2 ug/ml streptavidin in PBS at room temperature, washed 4× and blocked for 1 h at 37° C. in 2% BSA containing blocking buffer. Refolded HLA-A*02:01/MLA-001 monomers served as standards, covering the range of 15-500 ng/ml. Peptide-MHC monomers of the UV-exchange reaction were diluted 100-fold in blocking buffer. Samples were incubated for 1 h at 37° C., washed four times, incubated with 2 ug/ml HRP conjugated anti-β2m for 1 h at 37° C., washed again and detected with TMB solution that is stopped with […]. Absorption was measured at 450 nm. Candidate peptides that show a high exchange yield (preferably higher than 50%, most preferred higher than 75%) are generally preferred for a generation and production of antibodies or fragments thereof, and/or T cell receptors or fragments thereof, as they show sufficient avidity to the MHC molecules and prevent dissociation of the MHC complexes.

As to “2 (PVCPPGGIQEV; listed as Homo sapiens) [compound 2]”, the “Peptide exchange (MHC class I binding score, peptide exchange yield)” value (from here on “Peptide exchange”) is given as “+++ (>50 = +++)”.
Under “4 (ILDINDNPPV; listed as Homo sapiens) [compound 4]” stands “+++ (>50 = +++)”; under “5 (VCPPGGIQEV; listed as Homo sapiens) [compound 5]”, “+++ (>50 = +++)”.
Under “6 (ALYDAELSQM; listed as Homo sapiens) [compound 6]” stands “+++ (>50 = +++)”; under “7 (ALEEANADLEV; listed as Homo sapiens) [compound 7]”, “+++ (>50 = +++)”; under “9 (STASAITPSV; listed as Homo sapiens) [compound 9]”, “++ (>20% = ++)”.
For “14 (RIMEGIPTV; listed as Homo sapiens) [compound 14]”, the “Peptide exchange” value is reported as “++++ (>75% = ++++)”.
Under “15 (SMLNNIINL; listed as Homo sapiens) [compound 15]” stands “+++ (>50 = +++)”; under “21 (FLHEPFSSV; listed as Homo sapiens) [compound 21]”, “++++ (>75% = ++++)”.
The value for “22 (KLPEPCPSTV; listed as Homo sapiens) [compound 22]” was “+++ (>50 = +++)”; that for “23 (SLPESGLLSV; listed as Homo sapiens) [compound 23]” was “+++ (>50 = +++)”; that for “24 (LLIAINPQV; listed as Homo sapiens) [compound 24]” was “++++ (>75% = ++++)”.
Under “25 (SLCPPGGIQEV; listed as Homo sapiens) [compound 25]” stands “++++ (>75% = ++++)”; under “27 (YLAEPQWAV; listed as Homo sapiens) [compound 27]”, “++++ (>75% = ++++)”.
For “31 (HLATVKLLV; listed as Homo sapiens) [compound 31]”, the “Peptide exchange” value was “++++ (>75% = ++++)”.
The value for “32 (IQDAEGAIHEV; listed as Homo sapiens) [compound 32]” was “++++ (>75% = ++++)”; that for “33 (AIYEGVGWNV; listed as Homo sapiens) [compound 33]” was “++++ (>75% = ++++)”; that for “34 (ALDTFSVQV; listed as Homo sapiens) [compound 34]” was “++++ (>75% = ++++)”.
As for “35 (ALVGDVILTV; listed as Homo sapiens) [compound 35]”, the “Peptide exchange” value is “++++ (>75% = ++++)”.
Turning to “36 (GLWSSIFSL; listed as Homo sapiens) [compound 36]”, the “Peptide exchange” value is reported as “++++ (>75% = ++++)”.
For “37 (ILLEDVFQL; listed as Homo sapiens) [compound 37]”, the “Peptide exchange” value is given as “++++ (>75% = ++++)”.
As for “38 (KLLPGVQYV; listed as Homo sapiens) [compound 38]”, the “Peptide exchange” value was “++++ (>75% = ++++)”.
Under “39 (LLPEDDTRDNV; listed as Homo sapiens) [compound 39]” stands “+++ (>50 = +++)”.
On to “40 (LLTPLNLQI; listed as Homo sapiens) [compound 40]”, for which the “Peptide exchange” value is recorded as “+++ (>50 = +++)”.
As to “41 (RLNGEGVGQVNISV; listed as Homo sapiens) [compound 41]”, the “Peptide exchange” value is given as “++ (>20% = ++)”.
Under “42 (ALYTSGHLL; listed as Homo sapiens) [compound 42]” stands “++++ (>75% = ++++)”; under “43 (AVLGGKLYV; listed as Homo sapiens) [compound 43]”, “++++ (>75% = ++++)”.
The value for “44 (GLGDDSFPI; listed as Homo sapiens) [compound 44]” was “++++ (>75% = ++++)”; that for “45 (GLIEWLENTV; listed as Homo sapiens) [compound 45]” was “++++ (>75% = ++++)”; that for “46 (GLISSIEAQL; listed as Homo sapiens) [compound 46]” was “++++ (>75% = ++++)”.
“47 (QLLEGELETL; listed as Homo sapiens) [compound 47]”: the “Peptide exchange” value is “+++ (>50 = +++)”.
The value for “48 (YLLDYPNNL; listed as Homo sapiens) [compound 48]” was “+++ (>50 = +++)”.
On to “49 (YLWEAHTNI; listed as Homo sapiens) [compound 49]”, for which the “Peptide exchange” value is reported as “++++ (>75% = ++++)”.
On to “50 (ALSNVVHKV; listed as Homo sapiens) [compound 50]”, for which the “Peptide exchange” value was “++++ (>75% = ++++)”.
On to “51 (FLIPSIIFA; listed as Homo sapiens) [compound 51]”, for which the “Peptide exchange” value was “++++ (>75% = ++++)”.
Under “52 (LLFTGLVSGV; listed as Homo sapiens) [compound 52]” stands “+++ (>50 = +++)”.
Regarding “53 (RLVEVGGDVQL; listed as Homo sapiens) [compound 53]”, the “Peptide exchange” value is listed as “++++ (>75% = ++++)”.
“54 (RLSGEGVGPV; listed as Homo sapiens) [compound 54]”: the “Peptide exchange” value is listed as “+++ (>50 = +++)”.
The value for “55 (VLNVGVAEV; listed as Homo sapiens) [compound 55]” was “+++ (>50 = +++)”; that for “56 (FLQLETEQV; listed as Homo sapiens) [compound 56]” was “++++ (>75% = ++++)”; that for “57 (AILGFALSEA; listed as Homo sapiens) [compound 57]” was “++++ (>75% = ++++)”.
The value for “58 (SLSDIQPCL; listed as Homo sapiens) [compound 58]” was “+++ (>50 = +++)”; that for “59 (YLQNEVFGL; listed as Homo sapiens) [compound 59]” was “+++ (>50 = +++)”.
Under “60 (SLGNFKDDLL; listed as Homo sapiens) [compound 60]” stands “+++ (>50 = +++)”; under “61 (FVAGYIAGV; listed as Homo sapiens) [compound 61]”, “++++ (>75% = ++++)”; under “62 (ILSSACYTV; listed as Homo sapiens) [compound 62]”, “++++ (>75% = ++++)”.
On to “63 (ALMDEINFMKM; listed as Homo sapiens) [compound 63]”, for which the “Peptide exchange” value is “++++ (>75% = ++++)”.
The value for “64 (KILESLFVSL; listed as Homo sapiens) [compound 64]” was “+++ (>50 = +++)”; that for “65 (ALWGFFPVLL; listed as Homo sapiens) [compound 65]” was “++++ (>75% = ++++)”; that for “66 (TLLSEIAEL; listed as Homo sapiens) [compound 66]” was “++++ (>75% = ++++)”.
The value for “67 (AQLNLIWQL; listed as Homo sapiens) [compound 67]” was “++++ (>75% = ++++)”.
With “68 (KILEMDDPRA; listed as Homo sapiens) [compound 68]”, the “Peptide exchange” value is listed as “++ (>20% = ++)”.
The value for “69 (YVMESMTYL; listed as Homo sapiens) [compound 69]” was “++++ (>75% = ++++)”.
Under “70 (FLFPAFLTA; listed as Homo sapiens) [compound 70]” stands “++++ (>75% = ++++)”.
“71 (SLFPYVVLI; listed as Homo sapiens) [compound 71]”: the “Peptide exchange” value is reported as “++++ (>75% = ++++)”.
Turning to “72 (SLDGNPLAV; listed as Homo sapiens) [compound 72]”, the “Peptide exchange” value was “++++ (>75% = ++++)”.
Regarding “73 (YIDPYKLLPL; listed as Homo sapiens) [compound 73]”, the “Peptide exchange” value is “+++ (>50 = +++)”.
